Laboratory results taken from publication PMC11672316, “Identification of ANXA1 as a Novel Upstream Negative Regulator of Notch1 Function in AML” (Advanced Science, 2024).
Bridge positions count the residues as written; N and C are the ends. Ends that are not written are not given here. Peptide text beside a SMILES is read from it.

Assays:
ANXA1 = target: T1, ANXA1 (Homo sapiens, UniProt P04083); test: BLI analysis, NICD peptides to immobilized ANXA1; format: binding; conditions: for Koff: Octet Red96, ANXA1 immobilized on SSA sensor, peptides in SD buffer
T1 construct: made in house; host or cells: E. coli BL21
T1 sequence (P04083 1-346): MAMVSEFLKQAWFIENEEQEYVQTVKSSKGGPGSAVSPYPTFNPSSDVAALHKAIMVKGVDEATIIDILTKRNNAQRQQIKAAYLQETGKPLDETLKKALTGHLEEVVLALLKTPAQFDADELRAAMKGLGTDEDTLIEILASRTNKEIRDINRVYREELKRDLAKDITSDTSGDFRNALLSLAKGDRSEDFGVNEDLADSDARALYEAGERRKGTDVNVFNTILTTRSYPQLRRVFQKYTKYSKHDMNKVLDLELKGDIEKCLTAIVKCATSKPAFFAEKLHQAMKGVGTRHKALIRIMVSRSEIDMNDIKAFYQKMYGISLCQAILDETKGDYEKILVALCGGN
Description: (§1) AlphaFold2 and ClusPro servers were used to dock NICD and ANXA1.^[ [35] ^] The predictions were tested by GST‐pull down assay, bio‐layer interferometry (BLI) analysis, and chemical cross‐linking coupled with mass spectrometry. Details of these procedures are described in Materials and Methods (Supporting Information).
(§2) For bio‐layer interferometry (BLI) analyses performed by Octet Red96 system (Sartorius), purified NICD protein was immobilized on SA sensor (Sartorius) after labeling with Sulfo-NHS-Biotin (EZ-Link) and dialysis. To determine binding kinetics, five concentrations of purified ANXA1 protein were prepared with PBST (PBS containing 0.02% Tween-20) and measured from low to high concentrations by NICD-immobilized biosensors to obtain the association and dissociation sensorgram data. For detection of the interaction between protein and small molecular peptides, purified ANXA1 protein was immobilized on SSA sensor (Sartorius) to detect the binding kinetics of NICD peptides, which were diluted in SD buffer (PBST plus 0.1% w v^-1 BSA). The kinetic parameters Kon, Koff and KD were determined using Octct data analysis software.

[1] = target: T2, GST-tagged full-length ANXA1 (Annexin A1) (human, UniProt P04083 1-346); test: BLI; Octet Red96; purified ANXA1 protein immobilised on SSA sensor; NICD peptides diluted in SD buffer (PBST plus 0.1% w/v BSA); conditions: both partners purified
T2 construct: Annexin A1 (ANXA1), human, full length; In the BLI with peptides it was immobilised on an SSA sensor; also called GST-ANXA1; source: E. coli BL21, purified (GST resin)
T2 sequence (looked up): T1 sequence (P04083 1-346)

[2] = target: intracellular domain of Notch1 (NICD), protein used in BLI and cross-linking; test: BLI; NICD with full-length ANXA1 or the C-terminal domain of ANXA1 at increasing concentrations; who was immobilised is not told in the main text (scheme in Figure 2D)
NICD = test: BLI analysis, ANXA1 proteins to immobilized NICD; format: binding, human; conditions: for binding affinity with NICD: Figure 2E; for Koff / Kon / Kd: Octet Red96, biotinylated NICD immobilized on SA sensor; for Koff / Kon: ANXA1 protein in PBST; for Kd: five concentrations of ANXA1 protein in PBST (PBS containing 0.02% Tween-20)
Description: as §1, §2

NICD (Δ2,050−2,060) = test: BLI analysis of ANXA1 binding NICD (Δ2,050−2,060); set-up: species or system human; conditions: Figure S6E
Description: as §2
Figure S6. ANXA1 (214−228) and NICD (2,050−2,060) mediate the protein-protein interaction, related to Figure 2J. (A) mRNA expression of ANXA1 detected by qPCR in KG1a-sgANXA1 and HL60-sgANXA1 cells. […] (C) The cell proliferation ability detected by CCK8 assay after 96 hours of culture of KG1a or HL60 cells stably transfected with sgANXA1 or sgControl plasmids. (D) The cell proliferation ability detected by CCK8 assay after 96 hours of culture of KG1a-sgANXA1 and HL60-sgANXA1 cells transiently transfected with ANXA1 (Δ214−228) plasmid. […]

Notch1 = test: GST-pull down assay of Notch1 from KG1a cell lysate; format: binding, human; conditions: western blotting, 4°C overnight; Figure S4C
Description: For GST-pull down assay, the purified GST fusion proteins were incubated with precleared GST resin (Solarbio) for 5 hours at 4°C. The precipitation was washed four times with PBS and captured the Notch1 protein from prepared cell lysates at 4°C overnight. The complexes were washed four times with PBS before being eluted in SDS-gel loading buffer and detected by western blotting.
Figure S4. GST pull down analysis of the interaction between ANXA1 and Notch1, related to Figure 2. (A) Schematic diagram of GST-tagged fusion protein structure of ANXA1 full-length, C-terminal, and N-terminal domain. (B) Coomassie blue-stained SDS gel image of GST-tagged fusion protein of full-length ANXA1, and N-terminal, and C-terminal domains of ANXA1. (C) Western blotting of Notch1 and ANXA1 expression in complexes pulled-down by GST-ANXA1 in sgANXA1#3 and sgControl cells of KG1a.

CSCC[C@H](NC(=O)[C@H](CC(=O)O)NC(=O)[C@H](CCCCN)NC(=O)[C@H](CC(N)=O)NC(=O)[C@H](C)NC(=O)CNC(=O)[C@H](CC(N)=O)NC(=O)[C@H](CCCCN)NC(=O)[C@H](CC(C)C)NC(=O)[C@@H]1CSSC[C@H](NC(=O)[C@H](C)NC(=O)[C@H](CO)NC(=O)[C@@H](N)CCCCN)C(=O)N[C@@H](Cc2c[nH]cn2)C(=O)N[C@@H](Cc2c[nH]c3ccccc23)C(=O)N[C@@H](C)C(=O)N[C@@H](C)C(=O)N[C@@H](C)C(=O)N[C@@H](C(C)C)C(=O)N[C@@H](CC(N)=O)C(=O)N[C@@H](CC(N)=O)C(=O)N[C@@H](C(C)C)C(=O)N[C@@H](CC(=O)O)C(=O)N[C@@H](C)C(=O)N[C@@H](C)C(=O)N[C@@H](C(C)C)C(=O)N[C@@H](C(C)C)C(=O)N1)C(=O)N[C@@H](CCC(N)=O)C(=O)N[C@@H](CC(N)=O)C(=O)N[C@@H](CC(N)=O)C(=O)N[C@@H](CCCNC(=N)N)C(=O)O [NICD-5c] (H-KSACHWAAAVNNVDAAVVCLKNGANKDMQNNR-OH; disulfide 4-19)
Koff (ANXA1): 1.08×10^-2 1 s^-1

KSALHWAAAVNNVDAAVVLLKNGANKDMQNNR [NICD-5l, linear peptide, NICD 2029~2060]
inhibition of cell proliferation (KG1a cells; KG1a, CCK8, 72 h, Figure 2K, means ± s.e.m. of three independent experiments): significantly inhibited the proliferation of KG1a and HL60 cells in a dose‐dependent manner
inhibition of cell proliferation (HL60 cells; HL60, CCK8, 72 h, Figure 2K, means ± s.e.m. of three independent experiments): significantly inhibited the proliferation of KG1a and HL60 cells in a dose‐dependent manner
binding affinity with GST-ANXA1 (ANXA1; Figures 2I and S5B): increased the binding affinity with GST‐ANXA1 in a dose‐dependent manner
Koff (ANXA1): 1.27×10^-2 1 s^-1

RKKRRQRRR [TAT, reference compound]
cell damage (KG1a cells): barely caused cell damage
cell damage (HL60 cells): barely caused cell damage

B1: NICD-5l peptide (peptide)
peptide: KSALHWAAAVNNVDAAVVLLKNGANKDMQNNR
notes: also called NICD-5 linear peptide; source: synthetic peptide (solid phase, Wang resin)
Kd [1]: 154 µM

B2: NICD-5c peptide (peptide)
peptide: KSACHWAAAVNNVDAAVVCLKNGANKDMQNNR-OH
modifications: bridge 4-19; also: cyclisation chemistry not given here
notes: also called NICD-5 cyclic peptide; source: synthetic peptide (solid phase, Wang resin)
Kd [1]: 223 µM

B3: GST-tagged C-terminal domain of ANXA1 (domain or fragment)
chain: PSSDVAALHKAIMVKGVDEATIIDILTKRNNAQRQQIKAAYLQETGKPLDETLKKALTGHLEEVVLALLKTPAQFDADELRAAMKGLGTDEDTLIEILASRTNKEIRDINRVYREELKRDLAKDITSDTSGDFRNALLSLAKGDRSEDFGVNEDLADSDARALYEAGERRKGTDVNVFNTILTTRSYPQLRRVFQKYTKYSKHDMNKVLDLELKGDIEKCLTAIVKCATSKPAFFAEKLHQAMKGVGTRHKALIRIMVSRSEIDMNDIKAFYQKMYGISLCQAILDETKGDYEKILVALCG
Kd [2]: 5.32 µM
binding affinity with NICD (NICD): dose‐dependently increased the binding affinity with NICD
Koff (NICD): 1.68×10^-2 1 s^-1
Kon (NICD): 3.15×10^3 1 Ms^-1
Kd (NICD): 5.32 µM

B4: GST-tagged full-length Annexin A1 (ANXA1) (natural protein)
chain: T1 sequence (P04083 1-346)
Kd [2]: 18.4 µM

B5: Full-length ANXA1: purified full-length Annexin A1 protein (protein)
chain: T1 sequence (P04083 1-346)
modifications: left off: GST, end not stated, kept
notes: purified full-length Annexin A1 protein
binding affinity with NICD (NICD): dose‐dependently increased the binding affinity with NICD
Koff (NICD): 2.88×10^-2 1 s^-1
Kon (NICD): 1.57×10^3 1 Ms^-1
Kd (NICD): 18.4 µM

B6: ANXA1: Annexin A1, Ca2+-dependent phospholipid-binding protein (protein)
chain: T1 sequence (P04083 1-346)
modifications: left off: GST, end not stated, kept
interaction with NICD lacking 2050–2060 (NICD (Δ2,050−2,060)): the interaction between NICD and ANXA1 was also lost due to the deletion of 2050–2060 amino acid domain of NICD

B7: GST-tagged ANXA1: GST-tagged fusion protein of full-length ANXA1 (protein)
chain: T1 sequence (P04083 1-346)
modifications: left off: GST, end not stated, kept
pull-down of Notch1 from cell lysate (Notch1): Notch1 in the cell lysate could be pulled down by GST‐tagged ANXA1
